{"source": "patent US20130195757", "about": "“SPARC BINDING APTAMERS AND USES THEREOF” (ABRAXIS BIOSCIENCE, LLC, published 2013)", "key": {"[1]": {"target": "T1, SPARC (osteonectin), recombinant human (Biol-SPARC) (Homo sapiens, UniProt P09486 P09486:18-303)", "T1 sequence": "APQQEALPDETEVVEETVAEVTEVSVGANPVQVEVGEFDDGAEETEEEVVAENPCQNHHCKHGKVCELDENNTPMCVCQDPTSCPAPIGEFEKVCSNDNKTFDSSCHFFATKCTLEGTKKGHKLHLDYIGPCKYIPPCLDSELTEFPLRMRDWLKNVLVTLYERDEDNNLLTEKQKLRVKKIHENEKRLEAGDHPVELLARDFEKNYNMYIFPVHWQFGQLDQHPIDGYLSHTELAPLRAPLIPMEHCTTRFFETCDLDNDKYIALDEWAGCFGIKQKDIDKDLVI", "assay": "SPR; SPARC immobilized", "settings": "tags: Biol; amine-coupled to CM5 chip or injected as analyte", "method": "(§1) Purified SPARC was immobilized onto the surface of a CM5 biosensor chip (GE/Biacore International AB) by the use of the amine coupling kit and the Surface Preparation tool as present in the BIACORE 3000® control software. The biosensor chip surface was activated by injecting (35 μL at a flow rate of 5 μL/min) a mixture of N-hydroxysuccinimide (NHS) and N-ethyl-N′-(dimethyl-aminopropyl)-carbodiimide (EDC) (1:1; v/v) into one of the four flow channels (Fcs). Then the SPARC, diluted (0.1 mg/mL) in coupling buffer (10 mM sodium acetate, pH 4.5), was injected and bound to the activated carboxymethylated dextran surface via its primary amine groups. After coupling, the remaining active groups were blocked with ethanolamine (1 M). Purified recombinant human VEGF165 (PeproTech, Rocky Hill, N.J.) was diluted into 100 μg/mL in sodium acetate, pH 5.5 and immobilized onto the biosensor chip surface as a control, and VEGF DNA aptamers were injected (FIG. 3). To validate recovery, the resulting bound VEGF aptamers were eluted, and 2 μL were recovered, out of which 0.5 μL was amplified by PCR.\n(§2) A concentration series of selected oligonucleotide DNA were injected over both reference surface and SPARC surface. Reference surfaces were used to subtract bulk refractive index responses from the specific SPARC binding signal as well as to ensure that there is no nonspecific interaction with the sensor chip surface."}, "[2]": {"target": "T2, VEGF165 (Homo sapiens, UniProt P15692-4 P15692-4:27-191)", "T2 sequence (P15692 other isoform, or with tags, fused parts or gaps)": "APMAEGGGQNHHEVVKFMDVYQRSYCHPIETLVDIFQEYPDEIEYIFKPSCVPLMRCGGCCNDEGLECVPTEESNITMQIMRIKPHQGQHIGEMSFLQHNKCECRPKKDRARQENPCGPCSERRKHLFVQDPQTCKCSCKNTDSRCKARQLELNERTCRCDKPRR", "assay": "SPR; negligible binding", "settings": "tags: PeproTech; amine-coupled to CM5 chip; chain copies: 2"}, "[3]": {"target": "T1, SPARC (osteonectin), recombinant human …", "assay": "SPR; SPARC immobilized on CM5; HBS 10 mM HEPES 150 mM NaCl 0.005% P-20; approx 4 pM in p171", "settings": "tags: Biol; amine-coupled to CM5 chip or injected as analyte", "method": "After coupling, the remaining active groups were blocked with ethanolamine (1 M). Purified recombinant human VEGF165 (PeproTech, Rocky Hill, N.J.) was diluted into 100 μg/mL in sodium acetate, pH 5.5 and immobilized onto the biosensor chip surface as a control, and VEGF DNA aptamers were injected (FIG. 3). To validate recovery, the resulting bound VEGF aptamers were eluted, and 2 μL were recovered, out of which 0.5 μL was amplified by PCR.\nas §2\nFIG. 21 depicts a sensorgram showing the binding and dissociation of Apt180 (SEQ ID NO: 1) to a Biol-SPARC immobilized CM5 sensorchip as described in Example 3. […] FIG. 22 is a sensorgram showing the binding and dissociation of Biol-SPARC and a modified Apt180 having the 3′ primer region of the aptamer removed. As described in Example 3, Biol-SPARC was immobilized to CM5 sensorchip and various concentrations (0.625 μM, 1.25 μM, 2.5 μM, 5 μM, and 10 μM) of the 3′ primer deleted Apt180, were injected over the Biol-SPARC sensor chip. The resulting KD calculated from this experiment was 1.45 nM. […]"}, "[4]": {"target": "Bovine serum albumin (Bos taurus, UniProt P02769 P02769:25-607)", "sequence (P02769 25-607, one chain of several)": "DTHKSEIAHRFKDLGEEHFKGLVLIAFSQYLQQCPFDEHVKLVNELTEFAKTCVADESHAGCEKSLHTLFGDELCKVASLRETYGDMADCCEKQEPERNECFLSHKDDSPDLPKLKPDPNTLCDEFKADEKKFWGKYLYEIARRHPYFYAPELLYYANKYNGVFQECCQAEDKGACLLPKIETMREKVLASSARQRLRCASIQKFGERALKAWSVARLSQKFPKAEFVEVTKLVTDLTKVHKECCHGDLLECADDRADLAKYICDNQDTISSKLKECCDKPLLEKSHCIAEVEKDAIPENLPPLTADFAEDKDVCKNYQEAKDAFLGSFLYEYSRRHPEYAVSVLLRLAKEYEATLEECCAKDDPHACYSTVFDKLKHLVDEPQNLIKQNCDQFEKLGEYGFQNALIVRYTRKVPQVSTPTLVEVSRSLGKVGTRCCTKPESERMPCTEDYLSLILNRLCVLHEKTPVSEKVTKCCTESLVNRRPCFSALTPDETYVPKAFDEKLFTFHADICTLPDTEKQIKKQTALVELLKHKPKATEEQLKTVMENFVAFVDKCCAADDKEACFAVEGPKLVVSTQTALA", "assay": "SPR; negligible binding", "settings": "label: 3'-biotin"}, "[5]": {"target": "T3, SPARC, mouse (from PYS-2 cells) (Mus musculus, UniProt P07214 P07214:18-302)", "T3 sequence": "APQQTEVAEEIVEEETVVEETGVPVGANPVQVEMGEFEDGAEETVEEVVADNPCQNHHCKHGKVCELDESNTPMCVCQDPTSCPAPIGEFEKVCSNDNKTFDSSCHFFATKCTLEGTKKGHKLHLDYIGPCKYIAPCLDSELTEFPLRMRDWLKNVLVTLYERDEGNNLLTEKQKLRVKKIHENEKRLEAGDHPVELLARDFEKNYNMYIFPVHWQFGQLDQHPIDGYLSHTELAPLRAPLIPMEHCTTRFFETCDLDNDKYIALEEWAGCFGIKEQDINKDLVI", "assay": "SPR; aptamer immobilized on SA chip", "settings": "tags: Sigma; PYS-2 parietal yolk sac cells; label: 3'-biotin"}, "[6]": {"target": "T2, VEGF165", "assay": "SPR; VEGF immobilized; no specific interaction", "settings": "tags: PeproTech; amine-coupled to CM5 chip; chain copies: 2"}, "[7]": {"target": "T1, SPARC (osteonectin), recombinant human …", "assay": "SPR; SPARC immobilized", "settings": "tags: Biol; amine-coupled to CM5 chip or injected as analyte", "remark": "listed apart in the source"}, "[8]": {"target": "T1, SPARC (osteonectin), recombinant human …", "assay": "SPR; heterogeneous ligand model KD1; KD2 0.103 mM; units as printed", "settings": "tags: Biol; amine-coupled to CM5 chip or injected as analyte", "method": "as §1\nA concentration series of selected oligonucleotide DNA were injected over both reference surface and SPARC surface. […]"}, "[9]": {"target": "T1, SPARC (osteonectin), recombinant human …", "assay": "SPR; aptamer immobilized on SA chip; 1:1 Langmuir", "settings": "tags: Biol; amine-coupled to CM5 chip or injected as analyte; label: 3'-biotin", "method": "20 μM each of biotinylated Apt180 (SEQ ID NO: 1), biotinylated Apt187 (SEQ ID NO: 2), or a control scrambled aptamer with biotin coupled to the 3′-end were immobilized onto commercially prepared SA sensor chips (GE/Biacore International AB), which have preimmobilized streptavidin, to allow biotin capture. Typically 1200 to 1300 RU of biotinylated aptamers were immobilized.\nUsing methods as described in Examples 2-3, above, biotinylated Apt180 and Apt187 were immobilized on CM5 sensorchips immobilized with streptavidin (SA sensorchips). Biol-SPARC was injected at concentrations ranging from 34.9 nM to 840 nM over the immobilized Apt180 and Apt187. For Apt180, the resulting curves were best fitted by heterogeneous ligand model indicating the possible presence of multiple binding sites."}}, "data": [{"binder": "Apt208 (AptBia208) (ssDNA) DNA: GAATTCGATGGTAACCAAGCAATTTGTATTTTTGTGTATTTATTTTGTTCATCTGATCTAGCCAAG", "values": [{"measurement": "Kd", "setting": "[1]", "result": 100, "unit": "nM"}]}, {"binder": "Apt184 (ssDNA) DNA: GAATTCGATGGTAACCAACCCAATGTGTTTCGTTTGTTTTCATTTGTCATCTGATCTAGCCAAG", "values": [{"measurement": "Kd", "setting": "[1]", "result": 277, "unit": "nM"}]}, {"binder": "Apt181 (ssDNA) DNA: GAATTCGATGGTAACCAATTTCCGTATTGTTGGTTTGTGTTTGTGTCGTCATCTGATCTAGCCAAG", "values": [{"measurement": "Kd", "setting": "[1]", "result": 298, "unit": "nM"}]}, {"binder": "Apt180 (ssDNA) DNA: GAATTCGATGGTAACCAAGGCTGTTCGGTATTTTGATATTTTTATGCGTCATCTGATCTAGCCAAG", "values": [{"measurement": "binding result", "setting": "[2]", "result": "no binding"}, {"measurement": "Kd", "setting": "[3]", "result": 4.4, "unit": "pM"}]}, {"binder": "Apt180 3'-biotin (ssDNA) DNA: GAATTCGATGGTAACCAAGGCTGTTCGGTATTTTGATATTTTTATGCGTCATCTGATCTAGCCAAG", "values": [{"measurement": "binding result", "setting": "[4]", "result": "no binding"}, {"measurement": "Kd", "setting": "[5]", "result": 1200, "unit": "nM"}]}, {"binder": "Apt231 (AptBia231) (ssDNA) DNA: GAATTCGATGGTAACCAATGCGCTTATGTTTTTTTTATTTTTTATGTTTCATCTGATCTAGCCAAG", "values": [{"measurement": "Kd", "setting": "[1]", "result": 45.4, "unit": "nM"}]}, {"binder": "Apt191 (ssDNA) DNA: GAATTCGATGGTAACCAAGGGGGTGTTTGTTTTTGTAGTCATTGTTGGTCATCTGATCTAGCCAAG", "values": [{"measurement": "Kd", "setting": "[1]", "result": 84.2, "unit": "nM"}, {"measurement": "binding result", "setting": "[6]", "result": "no binding"}]}, {"binder": "Apt100 (ssDNA) DNA: GAATTCGATGGTAACCAAGGTCACTTTTTTATGTCGCTTAAATGTTGGTCATCTGATCTAGCCAAGC", "values": [{"measurement": "Kd", "setting": "[7]", "result": "~300", "unit": "nM"}]}, {"binder": "Apt216 (AptBia216) (ssDNA) DNA: GAATTCGATGGTAACCAATGATGTTATTTTTTTGTGCTTTTATTCTTTTCATCTGATCTAGCCAAG", "values": [{"measurement": "Kd", "setting": "[1]", "result": 447, "unit": "nM"}]}, {"binder": "Apt211 (AptBia211) (ssDNA) DNA: GAATTCGATGGTAACCAAGGAATATTTGGGGTTTTTTGCTTCTGGACGTCATCTGATCTAGCCAAG", "values": [{"measurement": "Kd", "setting": "[8]", "result": 132, "unit": "µM"}]}, {"binder": "Apt207 (AptBia207) (ssDNA) DNA: GAATTCGATGGTAACCAAGTGTATTGTTTATTCTTCTGTTTCTTATTGTCATCTGATCTAGCCAAG", "values": [{"measurement": "Kd", "setting": "[1]", "result": 139, "unit": "nM"}]}, {"binder": "Apt187 (ssDNA) DNA: GAATTCGATGGTAACCAAGGCGGGGTTTTCGTATGCTCATTCCAGTGGTCATCTGATCTAGCCAAG", "values": [{"measurement": "Kd", "setting": "[7]", "result": 0.19, "unit": "nM"}]}, {"binder": "Apt187 3'-biotin (ssDNA) DNA: GAATTCGATGGTAACCAAGGCGGGGTTTTCGTATGCTCATTCCAGTGGTCATCTGATCTAGCCAAG", "values": [{"measurement": "Kd", "setting": "[9]", "result": 30.2, "unit": "nM"}]}]}
